According to article PMC12737490, “Beta Toxins Isolated from the Scorpion Centruroides hirsutipalpus (Scorpiones; Buthidae) Affect the Function of Sodium Channels of Mammals” (Toxins, 2025):

What was measured:
[1] = tested on: hNav 1.1; assay: Patch-clamp macroscopic sodium currents, hNav1.1 in HEK cells; assay type: cell-based, human; details: 200 nM toxin, mean ± SE of 5 cells (3–5 cells); for I/Imax (residual peak current): Chirp9 value marked * (p<0.05 paired t-test); for slope of activation after toxin: control 7.7 ± 0.7 (Chirp7 cells), 7.2 ± 0.3 (Chirp9 cells); for V0.5 of activation after toxin: control -24.8 ± 0.8 (Chirp7 cells, toxin value marked *), -22.8 ± 0.3 (Chirp9 cells), * = p<0.05 paired t-test; for slope of inactivation after toxin / V0.5 of inactivation after toxin: steady-state inactivation; for slope of inactivation after toxin: control 6.7 ± 0.1 (Chirp7 cells), 6.8 ± 0.2 (Chirp9 cells); for V0.5 of inactivation after toxin: control -59.9 ± 0.2 (Chirp7 cells), -59 ± 0.2 (Chirp9 cells)
Method: (§1) Recordings of macroscopic currents from sodium channels. Human voltage-gated sodium channels (hNav 1.1, hNav 1.2 and hNa 1.6) were stably expressed in HEK cells. Cells were maintained at 37 ◦C with 5% CO2 in a humidified atmosphere. The growth medium consisted of high-glucose Dulbecco’s Modified Eagle Medium (DMEM, Sigma Aldrich, Naucalpan de Juarez, Estado de Mexico, Mexico), supplemented with 10% Fetal Bovine Serum (ByProductos, Guadalajara, Jalisco, Mexico) and 500 μg/mL of the antibiotic G418 (Sigma Aldrich, Naucalpan de Juarez, Estado de Mexico, Mexico). The extracellular solution was composed of (in mM): 130 NaCl, 5 KCl, 2 CaCl2, 2 MgCl2, 10 HEPES, and 5 glucose, with the pH adjusted to 7.3 using NaOH. The intracellular solution contained (in mM): 105 CsF, 27 CsCl, 5 NaCl, 2 MgCl2, 10 EGTA, and 10 HEPES, with the pH also adjusted to 7.3 with CsOH. Solutions were delivered to the patched cell via an active perfusion system connected to a variable-speed syringe pump (Model A-99, Razel Scientific Instruments, Fairfax, VT, USA), with a perfusion rate of approximately 1 μL/s. Patch pipettes were made from borosilicate glass capillaries (Warner Instruments, Hamden, CT, USA) using a vertical puller (Model P-30, Sutter Instrument, Novato, CA, USA). The pipettes were filled with the internal solution and had resistance ranging from 1.5 and 3 MΩ. Sodium currents were elicited by 100 ms depolarization ranging from −110 to 30 mV in 10 mV steps, followed by a fully activating step at −10 mV for 50 ms. To better appreciate the effects of scorpion β-sodium toxins, channels were primed by means of a 5 ms depolarization at 50 mV, applied 50 ms before the depolarization steps, as previously described in Cestele et al. 1998 [17]. To ensure complete recovery from inactivation, cells were maintained at −120 mV for 280 ms before each step, while holding potential was set at −100 mV. Currents were acquired using a MultiClamp 700A amplifier and a DigiData 1440A digitizer (Molecular Devices, CA, USA).
(§2) For the activation curve, conductance (G) was calculated from current (I) elicited during depolarization steps by means of the equation G = I/(Vm − ENa), where I is the current elicited at membrane potential Vm, and ENa is the reversal potential of Na^+ ions, calculated experimentally for each cell. Conductance was normalized to its maximal level and plotted against the corresponding membrane potential. For the steady-state inactivation curve, currents elicited at −10 mV (after preconditioning depolarization from −110 to 30 mV) were plotted against the preconditioning potentials. Data from activation and from steady-state inactivation were fitted using a Boltzmann equation: y = A2 + (A1 − A2)/(1 + exp((x − x0)/dx)) where A1 is the initial value, A2 is the final value, x0 is the potential of half-activation (or half-inactivation) and dx is the slope. […]
(§3) Figure S1. Recordings of macroscopic currents from sodium channels. Sodium currents in B) were elicited by the stimulation protocol depicted in A): currents were elicited by 100 ms depolarization ranging from -110 to 30 mV in 10 mV steps, followed by a fully activating step at -10 mV for 50 ms.
(§4) A 5 ms depolarization at 50 mV was applied 50 ms before the depolarization steps to primed the channels. Peak currents obtained during the step depolarization from -110 to 30 mV (C and D, black circle in control and open circle after toxin application) were used to calculate the conductance and construct the activation curves. Currents recorded during the step at -10 mV (C and D, black square in control and open square for the toxin), were used to construct the inactivation curves. […]

[2] = tested on: hNav 1.2; assay: Patch-clamp macroscopic sodium currents, hNav1.2 in HEK cells; assay type: cell-based, human; details: 200 nM toxin; for I/Imax (residual peak current) / slope of activation after toxin / V0.5 of activation after toxin / slope of inactivation after toxin / V0.5 of inactivation after toxin: mean ± SE of 5 cells (3–5 cells); for slope of activation after toxin: control 5.4± 0.3 (Chirp7 cells), 7.6 ± 0.4 (Chirp9 cells); for slope of activation after toxin / slope of inactivation after toxin / V0.5 of inactivation after toxin: Chirp9 value marked * (p<0.05); for V0.5 of activation after toxin: control -21.1 ± 0.4 (Chirp7 cells), -26.5 ± 0.5 (Chirp9 cells); for slope of inactivation after toxin / V0.5 of inactivation after toxin: steady-state inactivation; for slope of inactivation after toxin: control 6 ± 0.2 (Chirp7 cells), 5.6 ± 0.2 (Chirp9 cells); for V0.5 of inactivation after toxin: control -56.1 ± 0.2 (Chirp7 cells), -55.5 ± 0.3 (Chirp9 cells)
Method: as §1, §2, §3, §4

[3] = tested on: CD1 strain albino mice; assay: Toxicity and lethality tests in mice (intraperitoneal); assay type: in vivo, Mus musculus; parameters: key to Toxicity: Non-toxic: “non-toxic” when the mice exhibited normal physiological and behavioral patterns indistinguishable from the control group; Toxic: “toxic” when the animals developed signs of intoxication, such as excitability, excessive salivation, transient paralysis, breathing difficulty, diarrhea, impaired coordination or movement, or excessive tearing. These symptoms would appear after administration but fully resolve within 24 h without lasting effects; Lethal: “lethal” when the mice showed severe manifestations of intoxication, including progressive paralysis, marked respiratory distress, convulsions, or complete loss of mobility, leading to death during the observation period as a direct consequence of exposure; details: 20 g CD1 mice; for symptoms in affected animals / time to death after injection / lethality in murine models: 30 µg in 100 µL PBS; for lethality in murine models / Toxicity: monitored 24 h, in triplicate; for Toxicity: 30 µg of each fraction in 100 µL PBS
Method: Toxicity assays. Toxicity and lethality tests of FPLC and HPLC fractions containing the toxins were conducted on CD1 strain albino mice (Mus musculus) weighing 20 g. The mice received intraperitoneal injections of 30 µg of each fraction diluted in 100 µL of Phosphate-buffered saline (PBS), while control mice were injected with sterile water. The mice were monitored for 24 h. […] A treatment was categorized as “toxic” when the animals developed signs of intoxication, such as excitability, excessive salivation, transient paralysis, breathing difficulty, diarrhea, impaired coordination or movement, or excessive tearing. These symptoms would appear after administration but fully resolve within 24 h without lasting effects. […] The experiments were conducted in triplicate. The Bioethics Committee approved the Animal Welfare protocol used in this study (Project 413).

Row | Molecule | I/Imax (residual peak current) [1] | slope of activation after toxin [1] | V0.5 of activation after toxin [1] [mV] | slope of inactivation after toxin [1] | V0.5 of inactivation after toxin [1] [mV] | I/Imax (residual peak current) [2] | slope of activation after toxin [2] | V0.5 of activation after toxin [2] [mV] | slope of inactivation after toxin [2] | V0.5 of inactivation after toxin [2] [mV] | symptoms in affected animals [3] | time to death after injection [3] | lethality in murine models [3] | lethality in murine models ([3]; listed as FII.7) | Toxicity [3] | effect on inactivation [2] | lethality in murine models ([3]; listed as FII.9)
1 | Chirp7 (disulfide (positions not given here); also: four disulfide bridges, pairing not given here) KEGYLVNHSTGCKYECFKLGDNDYCLRECRQQYGKGAGGYCYAFGCWCTHLYEQAVVWPLPKKTCN-NH2 | 0.98±0.02 | 6.9 ± 0.5 | -26.9 ± 0.6 | 6.4 ± 0.1 | -60.9 ± 0.2 | 1 ± 0.02 | 5.9 ± 0.3 | -22 ± 0.4 | 6.2 ± 0.2 | -56.9 ± 0.2 | hyperexcitability, tremors, piloerection, hypersalivation, transient paralysis, dyspnea, motor incoordination, severe respiratory distress, and, ultimately, death | approximately 20 min | pronounced lethality | particularly lethal effects | Lethal | – | –
2 | Chirp9 (disulfide (positions not given here); also: four disulfide bridges, pairing not given here) KEGYIVDYHTGCKYTCAKLGDNDYCVRECRLRYYQSAHGYCYAFACWCTHLYEAAVVWPLPNKRCK-NH2 | 0.94 ± 0.02 | 8.2 ± 0.2 | -23.6 ± 0.2 | 7.3 ± 0.2 | -60.1 ± 0.2 | 0.85 ± 0.07 | 10.8 ± 0.4 | -26.8 ± 0.5 | 7.6 ± 0.4 | -61.8 ± 0.4 | hyperexcitability, tremors, piloerection, hypersalivation, transient paralysis, dyspnea, motor incoordination, severe respiratory distress, and, ultimately, death | approximately 20 min | pronounced lethality | – | Lethal | shifted inactivation to more negative potential | particularly lethal effects
